The values that follow come from US6521594 (LA JOLLA CANCER RESEARCH FOUNDATION, dated 2003).

As usually defined, the IC50 is the concentration that inhibits the measured activity by half. High values mean a need for much substance, low ones inhibition by little substance.

Test [1] has as its target T1, Platelet glycoprotein IIb/IIIa (human, UniProt P08514 32-1039; P05106 27-788). Kind of test: cell-based or functional assay.
The target of test [2] is T1, Platelet glycoprotein IIb/IIIa. Kind of test: competition, ELISA or liposome assay. On the technique in general: An ELISA detects its analyte on a solid surface through an enzyme-linked reagent.
The target is the same in test [3]. Kind of test: cell-based or functional assay. The source holds these as a separate data set.
The next test deals with T2, Fibronectin receptor (human, UniProt P08648 42-1049; P05556 21-798).
T2 construct: mature; Purified on a 110 kd fibronectin fragment column; also called Fn-R; FnR
T2 sequence (P08648 42-1049, chain 1 of 2): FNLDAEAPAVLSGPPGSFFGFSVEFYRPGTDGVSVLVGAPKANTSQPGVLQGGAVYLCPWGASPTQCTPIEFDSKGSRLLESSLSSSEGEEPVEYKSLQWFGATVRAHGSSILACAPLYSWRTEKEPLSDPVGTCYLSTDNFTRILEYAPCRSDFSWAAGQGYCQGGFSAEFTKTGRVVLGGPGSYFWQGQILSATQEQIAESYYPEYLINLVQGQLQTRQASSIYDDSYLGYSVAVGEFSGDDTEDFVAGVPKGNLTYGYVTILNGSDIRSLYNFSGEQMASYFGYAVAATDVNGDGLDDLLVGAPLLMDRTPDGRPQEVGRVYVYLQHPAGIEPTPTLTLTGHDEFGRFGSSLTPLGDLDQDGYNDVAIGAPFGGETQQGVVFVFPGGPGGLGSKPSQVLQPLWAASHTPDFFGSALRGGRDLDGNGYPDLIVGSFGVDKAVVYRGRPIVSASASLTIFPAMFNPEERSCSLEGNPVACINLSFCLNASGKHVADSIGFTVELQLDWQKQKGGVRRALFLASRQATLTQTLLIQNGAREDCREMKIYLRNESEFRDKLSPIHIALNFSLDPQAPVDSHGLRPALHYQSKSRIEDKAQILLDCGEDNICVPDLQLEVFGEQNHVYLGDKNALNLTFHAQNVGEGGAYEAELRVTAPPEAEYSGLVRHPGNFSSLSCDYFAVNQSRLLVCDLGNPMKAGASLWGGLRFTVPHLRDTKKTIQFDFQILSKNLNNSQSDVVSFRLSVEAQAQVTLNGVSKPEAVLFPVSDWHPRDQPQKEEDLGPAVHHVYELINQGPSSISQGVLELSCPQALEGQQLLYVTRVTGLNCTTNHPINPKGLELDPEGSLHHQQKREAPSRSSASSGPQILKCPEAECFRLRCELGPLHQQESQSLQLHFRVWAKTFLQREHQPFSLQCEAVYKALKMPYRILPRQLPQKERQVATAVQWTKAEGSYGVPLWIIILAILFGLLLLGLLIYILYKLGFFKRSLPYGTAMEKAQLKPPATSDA
T2 sequence (P05556 21-798, chain 2 of 2): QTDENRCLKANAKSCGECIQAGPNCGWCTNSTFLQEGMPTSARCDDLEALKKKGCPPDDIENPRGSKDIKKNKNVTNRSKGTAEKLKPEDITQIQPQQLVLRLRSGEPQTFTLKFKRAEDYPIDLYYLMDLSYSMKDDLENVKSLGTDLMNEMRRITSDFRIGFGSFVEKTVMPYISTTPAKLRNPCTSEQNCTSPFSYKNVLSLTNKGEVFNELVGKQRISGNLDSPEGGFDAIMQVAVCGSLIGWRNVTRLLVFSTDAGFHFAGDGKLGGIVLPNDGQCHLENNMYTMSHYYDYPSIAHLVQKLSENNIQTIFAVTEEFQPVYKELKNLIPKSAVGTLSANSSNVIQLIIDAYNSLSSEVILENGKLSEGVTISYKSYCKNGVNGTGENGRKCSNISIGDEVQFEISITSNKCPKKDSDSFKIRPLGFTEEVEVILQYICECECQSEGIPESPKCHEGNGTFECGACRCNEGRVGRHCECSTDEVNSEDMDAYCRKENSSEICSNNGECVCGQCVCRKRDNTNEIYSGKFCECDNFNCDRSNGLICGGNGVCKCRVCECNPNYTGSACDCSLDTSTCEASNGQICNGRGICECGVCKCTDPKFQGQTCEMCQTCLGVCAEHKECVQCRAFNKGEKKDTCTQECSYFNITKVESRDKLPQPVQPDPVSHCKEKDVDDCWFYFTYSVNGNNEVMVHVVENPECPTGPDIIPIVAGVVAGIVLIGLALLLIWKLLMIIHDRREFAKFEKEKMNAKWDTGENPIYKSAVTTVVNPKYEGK
Kind of test: competitive ELISA, fibronectin coated.

For a further test, the target named is T3, Vitronectin receptor (human, UniProt P06756 31-1048; P05106 27-788).
T3 construct: mature; also called Vn-R; VnR
T3 sequence (P06756 31-1048, chain 1 of 2): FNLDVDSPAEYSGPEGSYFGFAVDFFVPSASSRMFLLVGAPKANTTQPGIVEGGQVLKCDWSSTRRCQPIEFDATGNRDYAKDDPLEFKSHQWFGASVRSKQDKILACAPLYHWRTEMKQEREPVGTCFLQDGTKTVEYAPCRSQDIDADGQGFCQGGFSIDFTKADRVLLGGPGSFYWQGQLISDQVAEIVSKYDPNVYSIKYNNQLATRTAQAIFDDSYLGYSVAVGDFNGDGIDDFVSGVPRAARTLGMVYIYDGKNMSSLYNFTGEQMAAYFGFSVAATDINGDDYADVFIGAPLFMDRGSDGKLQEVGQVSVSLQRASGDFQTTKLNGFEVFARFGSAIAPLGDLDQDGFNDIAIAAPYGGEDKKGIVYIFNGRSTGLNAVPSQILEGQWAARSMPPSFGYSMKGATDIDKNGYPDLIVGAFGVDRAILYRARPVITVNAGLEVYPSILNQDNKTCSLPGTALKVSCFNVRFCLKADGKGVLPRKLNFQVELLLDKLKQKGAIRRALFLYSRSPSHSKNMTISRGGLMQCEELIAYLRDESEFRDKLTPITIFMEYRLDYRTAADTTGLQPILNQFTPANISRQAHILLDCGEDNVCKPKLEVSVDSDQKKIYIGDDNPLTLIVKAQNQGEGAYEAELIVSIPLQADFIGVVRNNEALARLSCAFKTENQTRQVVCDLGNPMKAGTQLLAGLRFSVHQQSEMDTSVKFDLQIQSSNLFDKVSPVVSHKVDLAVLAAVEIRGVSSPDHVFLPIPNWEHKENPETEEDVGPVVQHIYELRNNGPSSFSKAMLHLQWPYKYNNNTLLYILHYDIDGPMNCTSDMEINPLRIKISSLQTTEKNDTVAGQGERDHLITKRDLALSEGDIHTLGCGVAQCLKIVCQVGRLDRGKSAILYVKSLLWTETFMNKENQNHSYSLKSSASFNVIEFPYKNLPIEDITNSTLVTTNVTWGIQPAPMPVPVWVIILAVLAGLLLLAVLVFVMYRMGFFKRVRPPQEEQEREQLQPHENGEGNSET
T3 sequence (P05106 27-788, chain 2 of 2): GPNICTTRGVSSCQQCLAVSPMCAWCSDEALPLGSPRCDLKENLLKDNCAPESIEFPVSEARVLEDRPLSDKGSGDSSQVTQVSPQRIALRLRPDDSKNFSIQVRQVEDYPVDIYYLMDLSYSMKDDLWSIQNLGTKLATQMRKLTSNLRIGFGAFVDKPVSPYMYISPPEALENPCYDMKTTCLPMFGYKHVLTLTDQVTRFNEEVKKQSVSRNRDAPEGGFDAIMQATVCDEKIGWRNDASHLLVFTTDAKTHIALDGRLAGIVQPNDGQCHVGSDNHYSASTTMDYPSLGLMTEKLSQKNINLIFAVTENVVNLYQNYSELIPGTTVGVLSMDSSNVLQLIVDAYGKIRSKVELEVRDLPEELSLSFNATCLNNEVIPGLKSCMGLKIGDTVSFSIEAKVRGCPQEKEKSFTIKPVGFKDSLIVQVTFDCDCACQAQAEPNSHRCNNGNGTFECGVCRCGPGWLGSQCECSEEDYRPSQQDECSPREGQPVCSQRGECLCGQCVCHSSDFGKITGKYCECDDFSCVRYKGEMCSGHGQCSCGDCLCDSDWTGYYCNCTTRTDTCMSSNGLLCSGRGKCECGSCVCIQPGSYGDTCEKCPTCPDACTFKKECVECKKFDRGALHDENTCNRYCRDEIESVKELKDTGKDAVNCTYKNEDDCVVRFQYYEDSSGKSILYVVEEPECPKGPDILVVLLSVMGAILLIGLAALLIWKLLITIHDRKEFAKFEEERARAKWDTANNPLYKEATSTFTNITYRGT
The experiment in a line: competition, ELISA or liposome assay, vitronectin coated.

Test [4] deals with T1, Platelet glycoprotein IIb/IIIa. Kind of test: cell-based or functional assay. The source holds these as a separate data set.

Starred links: 1 amine or outer side, 2 acyl side, 3 side chain; linkers in the order of their positions; H or OH if unused. Positions of bridges follow the written chain, without caps; N, C: chain ends. Non-standard residues stand in square brackets, D forms with d. Primed or numbered codes have the meaning given here. No end group written: not given here. Tyr(OMe)″ = O-methyl-tyrosine (Y-OMe, TyrOMe, O-Me-Tyr), COc1ccc(C[C@H](N[*:1])C(=O)[*:2])cc1; Tyr(OMe) = O-methyl-tyrosine (O-Me-Tyr, Y-OMe), COc1ccc(C[C@H](N[*:1])C(=O)[*:2])cc1; t‑but‑am‑Pmp = tert-butyl-substituted beta,beta-pentamethylenecysteine; Cys(β,β-pentamethylene) = O=C([C@@H](N[*:1])C1(S[*:3])CCCCC1)[*:2]; O‑Me‑Tyr = O-methyl-tyrosine, COc1ccc(C[C@H](N[*:1])C(=O)[*:2])cc1; Pen = CC(C)(S)[C@H](N)C(=O)O

Consider R[Pen]GHRGDWRCR (disulfide 2-10, also called 4Q) [R(Pen)GHRGDWRCR], for which the “IC50 (µM) Human Platelet Aggregation” value in test [1] was determined as 3.3 µM. In test [2], this molecule came in with an IC50 of 800 nM.

Consider VRGDSPDG, for which the “IC50, ADP-Stimulated Aggregation” value in test [3] was determined as 92000 nM. Moreover, the IC50 is 270 nM in test [2], 40 nM with Fibronectin receptor and 240 nM in the test with Vitronectin receptor.

B1: R(t-but-am-Pmp)GHRGDLRCR-2 (peptide)
peptide: R[t‑but‑am‑Pmp]GHRGDLRCR
modifications: disulfide 2-10; not fully specified; printed as R(t-but-am-Pmp)GHRGDLRCR-2; also: second HPLC peak, configuration not assigned
On to B1, for which the IC50 in test [2] turned out to be 60 nM; in the test with Vitronectin receptor it was 3700 nM.

In test [2], R[Cys(β,β-pentamethylene)]GHRGD[O‑Me‑Tyr]RCR (disulfide 2-10, also called R(Pmc)GHRGD(Y-OMe)RCR; 5O) [R(Pmc)GHRGD(O-Me-Tyr)RCR] gave a 50% inhibitory concentration (IC50) of 60 nM.

For Ac-CDPRGD[Tyr(OMe)″]RC-NH2 (disulfide 1-9 (inferred)) [AcCDPRGD(TyrOMe)RC-NH2], the “Inhibition of Platelet Aggregation, IC50” value in test [4] was determined as 3000 nM.

B2: Ac(Pmc)GHRGD(O-Me-Tyr)RC-NH2 (peptide)
peptide: Ac-[Cys(β,β-pentamethylene)]GHRGD[Tyr(OMe)]RC-NH2
modifications: disulfide 1-9
SMILES: COc1ccc(C[C@@H]2NC(=O)[C@H](CC(=O)O)NC(=O)CNC(=O)[C@H](CCCNC(=N)N)NC(=O)[C@H](Cc3c[nH]cn3)NC(=O)CNC(=O)[C@@H](NC(C)=O)C3(CCCCC3)SSC[C@@H](C(N)=O)NC(=O)[C@H](CCCNC(=N)N)NC2=O)cc1
Turning to B2, the figures for the half-inhibitory concentration (IC50) (in test [2]; in the test with Vitronectin receptor) were 400 nM and 10000 nM, respectively.
